According to patent US20200256880A1, “Neuronal Assay Method Involving Calcineurin” (The Broad Institute, Inc., priority 2017, published 2020):
Read-outs that look alike come from different tables or passages of the source.

B1: monoclonal mouse anti-pS469 CNAα antibody: monoclonal mouse antibody with the heavy and light chain variable regions listed in the Sequence Table (antibody, V domains shown)
VH: EVQLQQSGAELVRPGASVKLSCTASDFNIKDTYIHWLKQRPEQGLEWIGRIDPANSNPKYDPNFQGKATITTDTSSNTAYLQLSSLTSDDTAVYYCTRRDYYGSGSWFAYWGQGTLVTVSS
VL: DIVMTQAAPSVPVTPGESVSISCRSSKSLLHSNGNTYLYWFLQRPGQSPQLLIYRMSNLASGVPDRFSGSGSGTAFTLRINRVEAEDVGVYYCMQHLEYPLTFGAGTKLELK
B2: brain-derived neurotrophic factor (protein, UniProt P23560 19-247, looked up)
Neurotrophic factor BDNF …: APMKEANIRGQGGLAYPGVRTHGTLESVNGPKAGSRGLTSLADTFEHVIEELLDEDQKVRPNEENNKDADLYTSRVMLSSQVPLEPPLLFLLEEYKNYLDAANMSMRVRRHSDPARRGELSVCDSISEWVTAADKKTAVDMSGGTVTVLEKVPVSKGQLKQYFYETKCNPMGYTKEGCRGIDKRHWNSQCRTTQSYVRALTMDSKKRIGWRFIRIDTSCVCTLTIKRGR

Experiments:
phosphorylated CNAα = target: T1, phosphorylated CNAα (Mus musculus, UniProt P63328); assay: Lambda phosphatase de-phosphorylation specificity test on membrane; format: binding; conditions: cortical neuron (15DIV) lysates on PVDF membrane, with or without cLTP
T1 construct: protein lysates from cortical neurons (15DIV), either 5 min post-cLTP induction or no cLTP control; endogenous in cells; host or cells: primary cortical neurons (15DIV)
Description: To further test the specificity of the murine monoclonal antibody for phosphorylated CNAα, de-phosphorylation experiments were performed using lambda phosphatase on protein fixed in a membrane. Specifically, protein lysates from cortical neurons (15DIV), either 5 min post-cLTP induction or no cLTP control, were separated by SDS-PAGE and subsequently transferred to a PVDF membrane. One section of the membrane was incubated overnight at room temperature with lambda phosphatase (FIG. 13, top panel, right blot), while another section was incubated under the same conditions without phosphatase (FIG. 13, top panel, left blot). Following these incubations, the phosphatase-treated and control membrane sections were incubated with the antibody and antibody binding was detected by chemiluminescence. […] As a loading control, the level of total CNAα was also assessed in both membranes sections after the incubations with or without phosphatase (bottom panel of the figure).

CNAα recombinant protein = assay: Western blot of CNAα recombinant protein WT, S469E and S462E/S469E with monoclonal antibody; format: binding
Description: The validation of the specificity of the antibody for pS469 was additionally determined by Western blot using CNAα recombinant protein WT (unphosphorylated), the phosphomimic mutant S469E (see examples above) and a double mutant with substitutions of E for S at both positions 462 and 469 (S462E/S469E). […] Levels of total CNAα were used as a loading control and were assessed after stripping of the membranes and incubation with anti-CNAα rabbit by chemiluminescence (bottom panel).

[1] = test system: phospho-S469 CNAα in rat hippocampal neurons; format: cell-based
[2] = listed as monoclonal murine anti-S469 CNAα phosphospecific antibody

Row | Molecule | recognition of CNAα with or without lambda phosphatase treatment (phosphorylated CNAα; listed as monoclonal antibody) | recognition of CNAα with or without lambda phosphatase treatment (phosphorylated CNAα; listed as monoclonal murine anti-S469 phosphospecific antibody) | recognition of double mutant S462E/S469E (CNAα recombinant protein) | recognition of recombinant protein S469E (CNAα recombinant protein) | recognition of wild-type unphosphorylated CNAα recombinant protein (CNAα recombinant protein) | recognition of double mutant S462E/S469E (CNAα recombinant protein; [2]) | recognition of recombinant protein S469E (CNAα recombinant protein; [2]) | recognition of wild-type unphosphorylated CNAα recombinant protein (CNAα recombinant protein; [2]) | levels of phospho-S469 CNAα within dendrites [1]
1 | B1 | only able to recognize CNAα in absence of lambda phosphatase treatment | eliminated phosphospecific antibody binding | recognition | recognizes | not | does recognize | does recognize | does not recognize | –
2 | B2 | – | – | – | – | – | – | – | – | no change
